The text below walks through data of the supplement of paper PMC10126150.

The subject of this data set is ATP. The experiment in a line: switch fluorescence ratio, 500 uM ATP over buffer (Cy3 cluster intensity, sum of 5 cycles each) (fold (ratio)); higher = stronger signal-on switching upon ATP binding; sequences stand for … in TCGTCGGCAGCGTCAGATGTGTATAAGAGACAGTTTTTTTTTTTTTTTTTTTTTTTTT…TC. Conditions: aptamer strand: ATP DNA aptamer (quencher-CACCTGGGGGAGTATTGCGGAGGAAGG + anchor), 100 nM annealed; ATP concentration: 500 uM. The method in brief:
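Cy3-labelled switching-strand clusters on a modified Illumina MiSeq flow-cell were annealed to 100 nM quencher-labelled ATP aptamer and imaged first in selection buffer, then after 15 min with 500 uM ATP at 22 °C. NaOH stripping and re-annealing separated each of five buffer/ATP cycles, and clusters outside 100-1000 RFU were excluded. The fluorescence ratio sums target-cycle Cy3 intensity over buffer-cycle Cy3 intensity per cluster and averages it per switch-domain sequence.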

± gives the standard deviation of the averaged measurements.
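Further: ATP exposure 15 min at 22 °C before imaging.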

Regarding CTTGGTTGCT, the switch fluorescence ratio was determined as 0.997 ± 0.032.
On to CTTGGTTTAG, for which the switch fluorescence ratio worked out at 1.01 ± 0.035.
As to CTTGTAACTT, the switch fluorescence ratio came to 1.01 ± 0.032.
Take CTTGTAAGGT: the switch fluorescence ratio was determined as 0.976 ± 0.022.
The result for CTTGTCAAGT reads 0.984 ± 0.071.
On to CTTGTCACCA, for which the switch fluorescence ratio amounted to 0.988 ± 0.022.
With CTTGTCGTGC, the switch fluorescence ratio was determined as 0.995 ± 0.033.
As to CTTGTGACAC, the switch fluorescence ratio is 1.02 ± 0.033.
In the case of CTTGTGAGGG, the switch fluorescence ratio was found to be 0.985 ± 0.037.
For CTTGTGGCGG, the switch fluorescence ratio stood at 0.97 ± 0.0098.
On to CTTGTGTGTC, for which the switch fluorescence ratio was 0.999 ± 0.015.
Turning to CTTTAAAAAG, the switch fluorescence ratio was 1 ± 0.059.
Turning to CTTTAACGAG, the switch fluorescence ratio was 0.9976 ± 0.0043.
For the sequence CTTTAACGGT, the switch fluorescence ratio is 1 ± 0.026.
On to CTTTAACGTT, for which the switch fluorescence ratio was found to be 0.981 ± 0.0073.
The result for CTTTAAGCTT reads 0.9981 ± 0.0027; that for CTTTAATGTT, 0.988 ± 0.037.
For CTTTACGTCG, the switch fluorescence ratio was 0.982 ± 0.016.
CTTTACTAGG: the switch fluorescence ratio amounted to 1.016 ± 0.0052.
CTTTAGGGTG: the switch fluorescence ratio was 1.06 ± 0.047.
For the sequence CTTTAGTACG, the switch fluorescence ratio is 0.9734 ± 0.0012.
With CTTTATATCT the figure was 0.993 ± 0.03; with CTTTCCTATG, 1.07 ± 0.019.
As for CTTTCTGGGG, the switch fluorescence ratio was 0.991 ± 0.017.
As to CTTTGAATTG, the switch fluorescence ratio was 0.987 ± 0.023.
In the case of CTTTGAGACG, the switch fluorescence ratio came to 0.978 ± 0.068.
The result for CTTTGCTAAC reads 2.21 ± 0.072; that for CTTTGGAACT, 1.06 ± 0.065; that for CTTTGGGGAT, 1.05 ± 0.12.
As to CTTTGGTGTC, the switch fluorescence ratio was 1.01 ± 0.029.
The result for CTTTGGTGTT reads 1.01 ± 0.017; that for CTTTGTCAGT, 0.979 ± 0.03; that for CTTTGTTATG, 0.9909 ± 0.0047.
CTTTGTTGGT: the switch fluorescence ratio turned out to be 0.9831 ± 0.0082.
As for CTTTGTTTTT, the switch fluorescence ratio stood at 0.9893 ± 0.0089.
For CTTTTACCGG, the switch fluorescence ratio stood at 1.04 ± 0.013.
As for CTTTTAGGGG, the switch fluorescence ratio is 1.01 ± 0.012.
Turning to CTTTTGCGCA, the switch fluorescence ratio was found to be 1.007 ± 0.0079.
For the sequence CTTTTGGCCT, the switch fluorescence ratio amounted to 1.03 ± 0.038.
With CTTTTGGTTT, the switch fluorescence ratio worked out at 0.975 ± 0.032.
Regarding CTTTTTGTTT, the switch fluorescence ratio amounted to 1.01 ± 0.041.
As for CTTTTTTGGG, the switch fluorescence ratio worked out at 1.01 ± 0.014.
The result for CTTTTTTTTG reads 0.993 ± 0.017.
With GAAAAAACAC, the switch fluorescence ratio is 1.16 ± 0.1.
With GAAAAAATGG, the switch fluorescence ratio was determined as 1.15 ± 0.26.
For GAAAAAGAGG, the switch fluorescence ratio stood at 0.985 ± 0.019.
The result for GAAAAAGATT reads 0.999 ± 0.017.
With GAAAAAGCGG, the switch fluorescence ratio was 1.04 ± 0.015.
Regarding GAAAAAGGCA, the switch fluorescence ratio amounted to 0.974 ± 0.033.
For GAAAAAGGCC, the switch fluorescence ratio was 1.02 ± 0.011.
On to GAAAAATGAC, for which the switch fluorescence ratio came out at 0.999 ± 0.021.
With GAAAACAGTT the figure was 0.9951 ± 0.0053.
Consider GAAAACGAAT, for which the switch fluorescence ratio was found to be 1.07 ± 0.14.
Regarding GAAAAGATTG, the switch fluorescence ratio was found to be 0.972 ± 0.024.
Consider GAAAAGGGGG, for which the switch fluorescence ratio turned out to be 0.992 ± 0.053.
For the sequence GAAACAGACA, the switch fluorescence ratio was found to be 1.08 ± 0.035.
On to GAAACATTGG, for which the switch fluorescence ratio is 1.0357 ± 0.00021.
Take GAAACCGTGG: the switch fluorescence ratio worked out at 1.06 ± 0.019.
GAAACGAATT: the switch fluorescence ratio was 1.02 ± 0.018.
The result for GAAACTTGTG reads 0.963 ± 0.025; that for GAAAGAGGGT, 1.03 ± 0.035.
With GAAAGATACC, the switch fluorescence ratio was found to be 1.03 ± 0.043.
Turning to GAAAGCGGTG, the switch fluorescence ratio was 1.01 ± 0.015.
With GAAAGGAAAA the figure was 0.975 ± 0.016; with GAAAGGCGAG, 1.11 ± 0.053.
With GAAAGGGAAA the figure was 1.03 ± 0.032.
For the sequence GAAAGGGCTG, the switch fluorescence ratio was found to be 1.05 ± 0.087.
The result for GAAAGGGGCC reads 1.01 ± 0.066; that for GAAAGGGGGC, 0.963 ± 0.041.
GAAAGGGTTA: the switch fluorescence ratio came out at 0.9898 ± 0.0085.
The result for GAAAGTCTGT reads 1.07 ± 0.087.
Turning to GAAAGTTCGA, the switch fluorescence ratio stood at 0.987 ± 0.01.
The result for GAAATAAAAT reads 1 ± 0.024.
For the sequence GAAATACCTT, the switch fluorescence ratio came to 0.976 ± 0.0021.
Regarding GAAATACTCT, the switch fluorescence ratio turned out to be 1.44 ± 0.12.
The result for GAAATAGGTA reads 0.988 ± 0.013; that for GAAATATCAT, 0.971 ± 0.018.
GAAATATGGC: the switch fluorescence ratio was determined as 1.15 ± 0.062.
On to GAAATCACTC, for which the switch fluorescence ratio was 1.15 ± 0.13.
Regarding GAAATCGCCA, the switch fluorescence ratio worked out at 1.022 ± 0.007.
The result for GAAATCGGAT reads 0.972 ± 0.016; that for GAAATGATGG, 0.978 ± 0.0013; that for GAAATGGGGG, 0.991 ± 0.028.
As to GAAATTAAGC, the switch fluorescence ratio stood at 1.06 ± 0.057.
In the case of GAAATTACAG, the switch fluorescence ratio worked out at 0.994 ± 0.016.
Consider GAAATTAGCC, for which the switch fluorescence ratio is 1.053 ± 0.0092.
The result for GAAATTAGTT reads 0.991 ± 0.018; that for GAAATTATTA, 0.9919 ± 0.0075.
For the sequence GAAATTGCAT, the switch fluorescence ratio stood at 0.996 ± 0.02.
As for GAAATTGGTT, the switch fluorescence ratio came out at 0.988 ± 0.067.
With GAAATTTTGC the figure was 0.995 ± 0.033; with GAACGGCTCG, 1.023 ± 0.0038; with GAACGTTGGG, 0.993 ± 0.033.
With GAACTAGGTC the figure was 1.01 ± 0.021; with GAACTGATGT, 1 ± 0.018; with GAACTGTATG, 1.05 ± 0.056.
With GAACTTCTGG, the switch fluorescence ratio was 0.985 ± 0.038.
Consider GAACTTTTTA, for which the switch fluorescence ratio was found to be 0.981 ± 0.011.
With GAAGAAAATT the figure was 1.01 ± 0.014; with GAAGAATGGT, 0.975 ± 0.013; with GAAGAATGTG, 1.01 ± 0.0082.
The result for GAAGAGGGAT reads 0.981 ± 0.049; that for GAAGATACGG, 1.03 ± 0.032.
In the case of GAAGATTTCT, the switch fluorescence ratio stood at 0.976 ± 0.03.
Regarding GAAGCTAGAA, the switch fluorescence ratio is 1.52 ± 0.3.
In the case of GAAGGAAAAG, the switch fluorescence ratio was 0.992 ± 0.099.
As to GAAGGATAGC, the switch fluorescence ratio stood at 0.998 ± 0.018.
For the sequence GAAGGATAGG, the switch fluorescence ratio amounted to 0.975 ± 0.029.
With GAAGGCCCGG the figure was 0.99 ± 0.062; with GAAGGGAAAG, 1.02 ± 0.012; with GAAGGGAGAG, 0.993 ± 0.031.
Consider GAAGGGCGCG, for which the switch fluorescence ratio stood at 1.029 ± 0.0034.
With GAAGGGGATT the figure was 1.015 ± 0.01; with GAAGGGGGAT, 1.02 ± 0.051; with GAAGGGGGTA, 0.996 ± 0.028.
Consider GAAGGGTATT, for which the switch fluorescence ratio came out at 1.01 ± 0.026.
GAAGGGTGCG: the switch fluorescence ratio worked out at 1.02 ± 0.034.
Turning to GAAGGTGAAT, the switch fluorescence ratio came to 1.04 ± 0.022.
On to GAAGGTTAGG, for which the switch fluorescence ratio worked out at 0.9866 ± 0.0081.
With GAAGTACGTC, the switch fluorescence ratio is 1.23 ± 0.18.
